US12012615B2, “Method of making induced pluripotent stem cells using p53 inhibitors” (Kyoto University, priority 2008, dated 2024)

Columns and labels:
[1] = tested on: Fibroblasts (MEF) from a fetal p53 hetero-deficient mouse having the Nanog reporter; test: Establishment of iPS cells (GFP-positive colonies) from MEFs with 4 factors and a p53 inhibitor; assay type: cell-based; details: 4 factors; 6 nM in medium from day 6; counted on day 20; compared with cells treated with DMSO
Procedure: The effects of a p53 inhibitor on the efficiency of establishment of iPS cells were examined. The retrovirus used for reprogramming was prepared by introducing a retrovirus expression vector (pMXs-Oct3/4, pMXs-Sox2, pMXs-Klf4, pMXs-cMyc) into Plat-E cells that had been sown to a 6-well culture plate (Falcon) at 0.6×10^6 cells per well on the previous day. The culture broth used was DMEM/10% FCS (DMEM (Nacalai tesque) supplemented with 10% fetal bovine serum), and cultured at 37° C. and 5% CO2. For vector transfer, 4.5 μL of the FuGene6 transfection reagent (Roche) was placed in 100 μL of Opti-MEM I Reduced-Serum Medium (Invitrogen), and this mixture was allowed to stand at room temperature for 5 minutes. Thereafter, 1.5 μg of each expression vector was added, and the mixture was further allowed to stand at room temperature for 15 minutes, and then added to Plat-E culture broth. On day 2, the Plat-E supernatant was exchanged with a fresh supply of the medium; on day 3, the culture supernatant was recovered and filtered through a 0.45 μm sterile filter (Whatman), polybrene (Nacalai) was added to obtain a concentration of 4 μg/mL, and this was used as the viral liquid.
Fibroblasts (MEF) were isolated from a fetal p53 hetero-deficient mouse having the Nanog reporter (13.5 days after fertilization). […] GFP-positive colonies were counted on day 20. […]

HDF = test: iPS cell generation from HDF with p53-regulated genes, with or without the p53 shRNA; assay type: cell-based, human; details: four factors and the p53 shRNA; colonies counted day 28
Excerpt: Genes regulated (4 increased and 7 decreased) by p53 suppression were introduced into HDFs together with the four reprogramming factors (FIG. 24A) or the four reprogramming factors and the p53 shRNA (FIG. 24B). On day 24 (FIG. 24A) or day 28 (FIG. 24B) post-transduction, numbers of iPS cell colonies were counted. **; p<0.01 compared to DsRed control (n=3).
Among these we transduced four increased genes and seven decreased genes by retroviruses into HDF, together with either the four reprogramming factors alone, or with the four factors and the p53 shRNA.

p53-null MEF = test: iPS cell generation from p53-null MEF with forced expression of p21; assay type: cell-based, mouse
[2] = tested on: Oct4-GFP, p53-heterozygous MEF; test: iPS generation by the three factors co-transduced with wild-type or mutant p53, p53-heterozygous MEFs; assay type: cell-based, mouse; details: retroviral co-transduction, counted 28 days after transduction
Excerpt: (§1) FIGS. 13A and 13B show iPS generation from p53 heterozygous or homozygous MEFs by the three factors co-transduced with wild-type or mutant p53. […] After retroviral transduction, 5000 cells were collected and GFP-positive colonies were counted 28 days after the transduction. Data of three independent experiments are shown. […] After retroviral transduction, 5000 live cells were collected and GFP-positive colonies were counted 28 days after the transduction. Data of two independent experiments are shown.
(§2) We used either the Nanog-GFP or Oct3/4-GFP reporter system for sensitive and specific identification of iPS cells (Okita K. et al. Nature 448, 313 (2007)). […] The cells were infected next day (day 0) with retrovirus made from Plat-E. On day 5, cells were reseeded either at one cell per well of 96-plates by a cell sorter (FACS Aria, Beckton Dekinson) or 5000 cells per 100 mm-dish. Puromycin selection ([…]) was initiated on day 13 in the four-factor protocol and on day 19 in the three factor protocol. Numbers of GFP positive colonies were determined on day 21 for the four-factor protocol and on day 28 in the three factor protocol.
(§3) First, we tested the effect of dominant negative mutants of p53 on the generation of iPS cells. […] After sequencing verification, cDNA was transferred to pMXs-gw by Gateway cloning technology (Invitrogen). […]

[3] = tested on: Fibroblasts (MEFs) from a fetal p53 hetero-deficient mouse having a Nanog reporter; test: Establishment of iPS cells from MEFs with 4 or 3 factors and the dominant negative mutant p53P275S; assay type: cell-based; details: compared with mutation-free p53 or DsRedExpress
Procedure: The function of endogenous p53 was inhibited using a dominant negative mutant of p53, and its influence on the efficiency of establishment of iPS cells was investigated. The dominant negative mutant used was p53P275S, prepared by causing a point mutation of the proline at the position 275 located in the genome-binding region of p53 to serine (Annemieke de Vries (2002). PNAS 99, 2948-2953).
The retrovirus used for reprogramming was prepared by introducing retrovirus expression vector (pMXs-Oct3/4, pMXs-Sox2, pMXs-Klf4, pMXs-cMyc, pMXs-p53P275S) into Plat-E cells that had been sown to a 6-well culture plate (Falcon) at 0.6×10^6 cells per well on the previous day (for how to prepare pMXs-p53P275S, see Example 6 below). The culture broth used was DMEM/10% FCS (DMEM (Nacalai tesque) supplemented with 10% fetal bovine serum), and cultured at 37° C. and 5% CO2. For vector transfer, 4.5 μL of the FuGene6 transfection reagent (Roche) was placed in 100 μL of Opti-MEM I Reduced-Serum Medium (Invitrogen), and this mixture was allowed to stand at room temperature for 5 minutes. Thereafter, 1.5 μg of each expression vector was added, and the mixture was further allowed to stand at room temperature for 15 minutes, and then added to Plat-E culture broth. […]
GFP-positive colonies were counted on day 21 for the 4 factors, and on day 28 for the 3 factors. […]

Nanog-GFP, p53-null MEFs = test: iPS generation by the three factors co-transduced with wild-type or mutant p53, p53-null MEFs; assay type: cell-based, mouse; details: retroviral co-transduction, counted 28 days after transduction
Excerpt: as §1, §2, §3

O=[N+]([O-])c1ccc(-c2cn3c4c(sc3n2)CCCC4)cc1 [Pifithrin α, p-Nitro, Cyclic, 2-(4-Nitrophenyl)imidazo[2,1-b]-5,6,7,8-tetrahydrobenzothiazole]
increase in the number of GFP-positive colonies [1]: about 4 times

p21: cyclin-dependent kinase inhibitor 1A (p21, Cip1), p53 target gene, forcibly expressed by retrovirus
counteraction of the effect of the p53 shRNA on iPS cell generation (HDF): effectively counteracted | iPS cell generation (p53-null MEF): markedly decreased

B1: p53P275S: dominant negative mutant of mouse p53, proline 275 to serine, expressed from retroviral vector pMXs-p53P275S (protein, UniProt P02340 1-390, looked up, variant P275S)
Cellular tumor antigen p53: MTAMEESQSDISLELPLSQETFSGLWKLLPPEDILPSPHCMDDLLLPQDVEEFFEGPSEALRVSGAPAAQDPVTETPGPVAPAPATPWPLSSFVPSQKTYQGNYGFHLGFLQSGTAKSVMCTYSPPLNKLFCQLAKTCPVQLWVSATPPAGSRVRAMAIYKKSQHMTEVVRRCPHHERCSDGDGLAPPQHLIRVEGNLYPEYLEDRQTFRHSVVVPYEPPEAGSEYTTIHYKYMCNSSCMGGMNRRPILTIITLEDSSGNLLGRDSFEVRVCACSGRDRRTEEENFRKKEVLCPELPPGSAKRALPTCTSASPPQKKKPLDGEYFTLKIRGRKRFEMFRELNEALELKDAHATEESGDSRAHSSYLKTKKGQSTSRHKKTMVKKVGPDSD
number of GFP-positive colonies / efficiency of iPS cell generation [2]: substantial increase | increase in the number of GFP-positive colonies ([3]; 3 factors, counted on day 28): about 3 times | increase in the number of GFP-positive colonies ([3]; 4 factors, counted on day 21): about 4 times

B2: S58A: transactivation-negative mouse p53 mutant, serine 58 to alanine, retrovirally expressed (protein, UniProt P02340 1-390, looked up, variant S58A)
Cellular tumor antigen p53: MTAMEESQSDISLELPLSQETFSGLWKLLPPEDILPSPHCMDDLLLPQDVEEFFEGPAEALRVSGAPAAQDPVTETPGPVAPAPATPWPLSSFVPSQKTYQGNYGFHLGFLQSGTAKSVMCTYSPPLNKLFCQLAKTCPVQLWVSATPPAGSRVRAMAIYKKSQHMTEVVRRCPHHERCSDGDGLAPPQHLIRVEGNLYPEYLEDRQTFRHSVVVPYEPPEAGSEYTTIHYKYMCNSSCMGGMNRRPILTIITLEDSSGNLLGRDSFEVRVCACPGRDRRTEEENFRKKEVLCPELPPGSAKRALPTCTSASPPQKKKPLDGEYFTLKIRGRKRFEMFRELNEALELKDAHATEESGDSRAHSSYLKTKKGQSTSRHKKTMVKKVGPDSD
number of GFP-positive colonies (Nanog-GFP, p53-null MEFs): weaker effects

B3: D278N: transactivation-negative mouse p53 mutant, aspartic acid 278 to asparagine, retrovirally expressed (protein, UniProt P02340 1-390, looked up, variant D278N)
Cellular tumor antigen p53: MTAMEESQSDISLELPLSQETFSGLWKLLPPEDILPSPHCMDDLLLPQDVEEFFEGPSEALRVSGAPAAQDPVTETPGPVAPAPATPWPLSSFVPSQKTYQGNYGFHLGFLQSGTAKSVMCTYSPPLNKLFCQLAKTCPVQLWVSATPPAGSRVRAMAIYKKSQHMTEVVRRCPHHERCSDGDGLAPPQHLIRVEGNLYPEYLEDRQTFRHSVVVPYEPPEAGSEYTTIHYKYMCNSSCMGGMNRRPILTIITLEDSSGNLLGRDSFEVRVCACPGRNRRTEEENFRKKEVLCPELPPGSAKRALPTCTSASPPQKKKPLDGEYFTLKIRGRKRFEMFRELNEALELKDAHATEESGDSRAHSSYLKTKKGQSTSRHKKTMVKKVGPDSD
number of GFP-positive colonies (Nanog-GFP, p53-null MEFs): weaker effects
